Consider one substance from publication PMC3293552.

This test deals with Fluorescein-labeled ATS-FL Q150C variant (Plasmodium falciparum). Description: fluorescence polarisation. For orientation: Polarisation of emitted light reports the rotation of a fluorescent probe.

“PFI1780w fragment spanning residues 80-280 (PHISTc-type domain) (domain or fragment)” returned a Kd of 150 µM.

What is called Kd is the free concentration of one partner at which half of the binding sites on the other are occupied at equilibrium, for simple one-to-one binding.
